Values belong to the compound of their own block, whether it stands above or below them.
Legend:
[1] = subjects with obesity, phase 2 study, ref Véniant et al., 2024, Amgen; cited from earlier work
Source text: (§1) [Graaf et al., 2016]). Both receptors are expressed in pancreatic β-cells and other cell types, resulting in numerous pleiotropic effects of their peptide agonists. […] [Liu et al., 2022]; [Drucker and Holst, 2023]). Studies show ...

[2] = system: subjects with T2DM; set-up: method as in Nauck et al., 1993; Gasbjerg et al., 2020; details: pharmacological doses, ref Nauck et al., 1993, Gasbjerg et al., 2020; cited from earlier work
[3] = system: INS-1 832/3 cells; details: ref Manchanda et al. (2023); cited from earlier work
[4] = system: GLP-1R; details: various cell types; ref Jorgensen et al., 2005; Manchanda et al., 2023; cited from earlier work
Source text: For many GPCRs, homologous desensitization first requires the phosphorylation of the active state of the receptor by the G protein-coupled receptor kinase (GRK) family of kinases. This is then followed by the binding of arrestin, which sterically hinders coupling to G proteins, effectively desensitizing the receptor ([Krasel et al., 2005]). Arrestin can also act as a scaffolding protein, linking the receptor to the cellular endocytic machinery and facilitating internalization ([Ferguson, 2001]). It is now appreciated that arrestin can also act as a signaling molecule in its own right, linking ...

[5] = system: INS-1 832/3 cells; details: ref Manchanda et al. (2023); cited from earlier work; remark: listed apart in the source
[6] = biological target: NLuc-labeled human GIPR (human) (UniProt P48546); assay: FRET or BRET; BRET in HEK-293 cells co-transfected 1:1 with NLuc-labeled receptor and NES-Venus-mini-G protein; cells in HBSS, agonist (GLP-1 or GIP) for 15 min, coelenterazine h 1 μM; BRET ratio as fold-change from non-stimulated, dose-response of the agonist
NLuc-labeled human GIPR (human), sequence (P48546 22-466): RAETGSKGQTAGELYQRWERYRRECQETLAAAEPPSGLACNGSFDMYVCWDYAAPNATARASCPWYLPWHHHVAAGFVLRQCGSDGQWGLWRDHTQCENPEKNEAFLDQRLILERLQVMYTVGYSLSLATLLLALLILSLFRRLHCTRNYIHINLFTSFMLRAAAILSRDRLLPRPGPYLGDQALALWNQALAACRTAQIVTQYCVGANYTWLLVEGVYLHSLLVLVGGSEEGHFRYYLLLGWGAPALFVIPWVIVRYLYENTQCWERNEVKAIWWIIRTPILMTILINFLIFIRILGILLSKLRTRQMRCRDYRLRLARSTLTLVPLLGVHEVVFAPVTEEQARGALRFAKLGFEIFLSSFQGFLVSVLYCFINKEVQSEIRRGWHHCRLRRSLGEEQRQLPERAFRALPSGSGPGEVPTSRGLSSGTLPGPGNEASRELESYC

[7] = biological target: NLuc-labeled chimeric receptor GIP/GLP-1R (GIPR with the C-terminal tail of GLP-1R) (human); assay: as above
[8] = biological target: NLuc-labeled human GLP-1R (human) (UniProt P43220); assay: as above
NLuc-labeled human GLP-1R (human), sequence (P43220 24-463): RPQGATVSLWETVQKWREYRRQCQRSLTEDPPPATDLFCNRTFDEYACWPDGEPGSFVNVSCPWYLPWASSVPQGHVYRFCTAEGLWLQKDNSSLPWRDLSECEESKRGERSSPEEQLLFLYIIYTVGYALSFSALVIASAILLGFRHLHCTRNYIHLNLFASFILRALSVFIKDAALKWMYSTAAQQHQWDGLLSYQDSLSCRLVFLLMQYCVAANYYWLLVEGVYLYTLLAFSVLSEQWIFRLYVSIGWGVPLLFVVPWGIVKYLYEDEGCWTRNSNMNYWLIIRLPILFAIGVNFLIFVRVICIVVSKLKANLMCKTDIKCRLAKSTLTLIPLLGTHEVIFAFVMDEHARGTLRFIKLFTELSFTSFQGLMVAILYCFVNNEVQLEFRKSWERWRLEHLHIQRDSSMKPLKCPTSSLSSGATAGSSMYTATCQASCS

[9] = biological target: NLuc-labeled chimeric receptor GLP-1/GIPR (GLP-1R with the C-terminal tail of GIPR) (human); assay: as above
[10] = biological target: RLuc8-labeled chimeric receptor GLP-1/GIPR (GLP-1R with the C-terminal tail of GIPR) (human); assay: FRET or BRET; BRET in HEK-293 cells co-transfected 1:2 with RLuc8-labeled receptor and Arr3-SYFP2; cells in HBSS, agonist (GLP-1 or GIP) for 15 min, coelenterazine h 1 μM; BRET ratio as fold-change from non-stimulated, dose-response of the agonist
[11] = system: animal models of diabetes and obesity; details: ref McClean et al., 2007, Gault et al.; cited from earlier work
Source text: as §1

[12] = system: GIPR; details: initially considered an antagonist; ref Al-Sabah et al., 2014a; Sparre-Ulrich et al., 2016; cited from earlier work
Source text: as §1

[13] = biological target: SYFP2-labeled chimeric receptor GLP-1/GIPR (GLP-1R with the C-terminal tail of GIPR) (human); assay: FRET or BRET; BRET in HEK-293 cells co-transfected 1:2 with SYFP2-labeled receptor and Arr3-NLuc; cells in HBSS, agonist (GLP-1 or GIP) for 15 min, coelenterazine h 1 μM; BRET ratio as fold-change from non-stimulated, dose-response of the agonist

Compound: Maridebart cafraglutide: fully human monoclonal anti-human GIPR antagonist antibody conjugated to two GLP-1R agonist peptides
Weight loss [1]: robust weight loss

Compound: CC[C@H](C)[C@H](NC(=O)[C@H](Cc1ccccc1)NC(=O)[C@H](CCC(=O)O)NC(=O)[C@H](CCCCN)NC(=O)[C@H](C)NC(=O)[C@H](C)NC(=O)[C@H](CCC(N)=O)NC(=O)CNC(=O)[C@H](CCC(=O)O)NC(=O)[C@H](CC(C)C)NC(=O)[C@H](Cc1ccc(O)cc1)NC(=O)[C@H](CO)NC(=O)[C@H](CO)NC(=O)[C@@H](NC(=O)[C@H](CC(=O)O)NC(=O)[C@H](CO)NC(=O)[C@@H](NC(=O)[C@H](Cc1ccccc1)NC(=O)[C@@H](NC(=O)CNC(=O)[C@H](CCC(=O)O)NC(=O)[C@H](C)NC(=O)[C@@H](N)Cc1c[nH]cn1)[C@@H](C)O)[C@@H](C)O)C(C)C)C(=O)N[C@@H](C)C(=O)N[C@@H](Cc1c[nH]c2ccccc12)C(=O)N[C@@H](CC(C)C)C(=O)N[C@H](C(=O)N[C@@H](CCCCN)C(=O)NCC(=O)N[C@@H](CCCNC(=N)N)C(N)=O)C(C)C [GLP-1, Glucagon-like peptide-1]
Overcoming the impaired incretin effect in T2DM [2]: can overcome this impairment in subjects with T2DM
GIP- vs GLP-1-stimulated insulin release [3]: no difference between GIP- and GLP-1-stimulated cAMP production or insulin release
Arrestin recruitment to GLP-1R, in words [4]: results in the rapid recruitment of arrestin
GIP- vs GLP-1-stimulated cAMP production [5]: no difference between GIP- and GLP-1-stimulated cAMP production

Compound: (Pro3)GIP: an analog of GIP with a glutamic-acid-to-proline substitution at position 3 (YAPGTFISDYSIAMDKIHQQDFVNWLLAQKGKKNDWKHNITQ; Gastric inhibitory polypeptide; UniProt P09681 52-93, looked up, variant E3P)
Glucose homeostasis and weight gain [11]: improving glucose homeostasis and preventing weight gain
Agonism at GIP receptor [12]: low-potency agonist

Second part, the compound after the results:

pEC50 of the agonist GIP for recruitment [6]: 8.9 -log EC50/M
pEC50 of the agonist GIP for recruitment [7]: 8.9 -log EC50/M
pEC50 of the agonist GLP-1 for recruitment [8]: 7.6 -log EC50/M
pEC50 of the agonist GLP-1 for recruitment [9]: 7.5 -log EC50/M
Compound: NES-Venus-mGαs

pEC50 of the agonist GLP-1 for recruitment [10]: 7.18 -log EC50/M
Compound: SYFP2-labeled arrestin3 (from UniProt P32121 1-409) (natural protein)

pEC50 of the agonist GLP-1 for recruitment [13]: 7.3 -log EC50/M
Compound: NLuc-labeled arrestin3 (from UniProt P32121 1-409) (natural protein)

pEC50 of the agonist GIP for recruitment [6]: 8.6 -log EC50/M
pEC50 of the agonist GIP for recruitment [7]: 9 -log EC50/M
pEC50 of the agonist GLP-1 for recruitment [8]: 7.3 -log EC50/M
pEC50 of the agonist GLP-1 for recruitment [9]: 7.1 -log EC50/M
Compound: NES-Venus-mGαq

From article PMC11975949 (Frontiers in Pharmacology, 2025)
